Reference: PMC6390181, “Ovalbumin Epitope [sequence] Self-Assembles into a Supramolecular Hydrogel” (Scientific Reports, 2019)

Molecular target: the molecule itself
Test: hydrogel formation (visual inspection, rheology); purified peptide dissolved in Millipore water at 0.5% or 1% (w/v); room temperature; gel seen at once (1%) or after overnight incubation (0.5%); rheology after 24 h; the analogue was followed for 72 h

B1: OVA257-264 octapeptide SIINFEKL (peptide)
peptide: SIINFEKL
notes: ovalbumin (OVA), residues 257-264; Assembles into nanofibrils and a hydrogel; the number of peptides in an assembly is not defined; source: synthetic peptide (Fmoc-SPPS, purified by RP-HPLC)
B1: binds.
